# According to paper PMC10437998, “A previously unrecognized superfamily of macro-conotoxins includes an inhibitor of the sensory neuron calcium channel Cav2.3” (PLOS Biology, 2023):
# Values joined by “and” are separate entries in the source; they are usually repeats but may differ in a detail not shown here. Equal entries are not always repeated.
# B1: Mu8.1 (SLC_Mu8.1), macro-conotoxin from Conus mucronatus (natural protein)
# chain: GENSDNLTHCRLFEFRLCLLECMSLTLDHCYARCTTVITQIHGSDTNRFDCTIFKTCYYRCYVLGKTEDHCWKGTATSVTGDVGDLEFC
# notes: also called Mu8.1_38; Mu8.1_59
# Experiments:
# [1] = target: the molecule itself; experiment: SEC; […] (pH 7.8), 150 mM NaCl, 0.5 mL/min; […]
# [2] = target: the molecule itself; experiment: […] (pH 7.8), room temperature; 1 mg/mL to 13.2 mg/mL (100 μM to 1.3 mM); […]
protein,measurement,setting,value
B1,stoichiometry N,[1],2
same,stoichiometry N,[2],4 and 6
